# Values joined by “and” are separate entries in the source; they are usually repeats but may differ in a detail not shown here. Equal values may be shown once.
# How the values were obtained:
# [1] = system: influenza strain A/Brisbane/07 (H1N1); assay type: cell-based, influenza virus
# ZDF fa/fa rats [2] = experiment: 21-day ZDF fa/fa study: oral glucose tolerance test (blood glucose, plasma insulin); assay type: in vivo, rat; conditions: day 21
# Protocol: Animals. Male ZDF fa/fa rats were obtained from CRL (Kingston, N.Y.). Upon arrival, rats were seven weeks of age. The rats were housed individually per cage in a room with a photo cycle of 12 hours of light and 12 hours of dark and an ambient temperature of 70-72° F. and fed on regular rodent diet and water ad libitum. At the age of eleven weeks, rats were divided into six groups (Table 5) of eight rats per group based on fasting blood glucose levels. A sub-group of four rats per group was maintained in parallel to the main groups and was dosed similarly for twenty-one days for a hyperinsulinemic-euglycemic clamp study. […]
# An oral glucose tolerance test (OGTT) was performed on Day 0, 7, 14 and 21 for each group of the study. Plasma samples were collected at each time point during OGTT to also measure insulin levels. Body weight, food and water intake were measured twice a week. Blood pressure and heart rates were monitored on Day 0, 7, 14 and 21 using a non-invasive tail cuff method (with five readings per rat taken and then averaged). Fasting serum samples were collected on Day 0, 7, 14 and 21 before OGTT for determination of triglyceride and total cholesterol level. Urine samples were collected on Day 7 and 14 for the determination of glycosuria. Glycated (Glycosylated) hemoglobin (HbA1c) was measured at the end of the study. Assay kits for these studies were as presented in Table 6, and were used according to the suppliers' instructions.
# OGTTs were performed on Day 0, 7, 14 and Day 21. Rats were fasted overnight and fasted blood glucose levels were measured (t=0 min), and then each rat was given a single 1.5 ml dose of glucose solution (2 g/kg body weight of D-(+)-glucose (G7528, Sigma) solubilized in deionized water) administered by oral gavage. […] At each time point of an OGGT approximately 50-60 μl of blood were collected and processed for plasma to measure insulin levels.
# Plasma Collection. On days 0, 7, 14 and 21 during an OGTT test, blood samples were collected from the rats at each time point (0, 15, 30, 60, 90 and 120 minutes) into tubes containing lithium heparin (BD Biosciences, USA) by tail nip and kept on ice. The samples were then centrifuged at 4° C. for plasma separation and the plasma supernatants were transferred into 0.5 ml Eppendorf™ tubes by pipette and stored at −80° C. for the analysis of insulin levels.
# Sprague Dawley Rats = experiment: Hyperinsulinemic-euglycemic clamp in Sprague Dawley rats; assay type: in vivo, rat
# Protocol: The hyperinsulinemic euglycemic clamp has been considered to as the standard in vivo technique for measuring insulin sensitivity effects of type 2 diabetes drugs. In this procedure, insulin is administered to a test animal to raise the insulin concentration, while glucose is infused to maintain euglycemia. The glucose infusion rate (GIR) needed to maintain euglycemia is a reflection of insulin action or improved insulin sensitivity. The bradykinin receptor agonist (anti-BKB2R) monoclonal antibody clone 5F12G1 was tested in a euglycemic clamp study to measure its ability to improve insulin sensitivity.
# Healthy young male Sprague Dawley Rats weighing 275-300 g were used for the study (Harlan Laboratory, Indianapolis, USA). The rats were maintained in a controlled environment at a temperature of 70-72° F., humidity 30-70%, with a photo cycle of 12 hours of light and 12 hours of dark. They were provided with TEKLAD™ 2018-Global 18% diet and drinking water ad libitum. After seven days of acclimatization, rats were grouped in groups of four.
# Animals were anesthetized with an intraperitoneal injection of ketamine-plus-xylazine cocktail and the right jugular vein and left carotid artery were catheterized externally through an incision in the skin flap. The catheterized animals were allowed to recover for five days. After five days of recovery, animals were fasted for six hours and a 120-minute hyperinsulimic-euglycemic clamp was applied with continuous infusion of human insulin (Humulin, Eli Lilly, Indianapolis, Ind.) at a constant rate of 4mU/kg/minute. […] Both insulin and glucose were infused through catheterized right jugular vein and blood glucose levels were monitored from the catheterized carotid artery. Arterial blood glucose levels and plasma insulin levels were measured prior to infusion at t=−120, −90, −30, −15 and 0 minutes and then at every 10 minutes for 120 minutes (t=120), using a Glucose meter (Accu-Chek™ Roche Diagnostics, Indianapolis, Ind.) and a rat insulin ELISA kit. […]
# ZDF fa/fa rats [3] = experiment: 21-day ZDF fa/fa study: hyperinsulinemic-euglycemic clamp in sub-groups; assay type: in vivo, rat; conditions: after 21 days
# Protocol: Animals. Male ZDF fa/fa rats were obtained from CRL (Kingston, N.Y.). Upon arrival, rats were seven weeks of age. The rats were housed individually per cage in a room with a photo cycle of 12 hours of light and 12 hours of dark and an ambient temperature of 70-72° F. and fed on regular rodent diet and water ad libitum. At the age of eleven weeks, rats were divided into six groups (Table 5) of eight rats per group based on fasting blood glucose levels. A sub-group of four rats per group was maintained in parallel to the main groups and was dosed similarly for twenty-one days for a hyperinsulinemic-euglycemic clamp study.
# The test compounds 5F12G1 and MG2b-57 were administered subcutaneously once every three days.
molecule,measurement,setting,value
"5F12G1: murine monoclonal anti-BKB2R antibody (IgG2b,κ), VH comprising SEQ ID NO:1, VL comprising SEQ ID NO:2 (antibody, listed as Mus musculus, V domains shown) VH: EVKLEESGGGLVQPGGSMKLSCVVSGFTFSDYWMSWVRHSPEMGLEWVAEIRLKSDNYATHYAESVKGRFTISRDDSKSRLYLQINSLRGEDTGIYYCTRDYYAMEYWGQGTSVTVSS VL: DVVMTQTPLSLPVSLGDQASISCRSSQTIVHSNGKTYLEWYLQKPGQSPKLLIYKVSNRFSGVPDRFSGSGSGTEFTLKISRVETEDLGVYYCFQASHVPYTFGGGTKLEIK",+/− Result FAM,[1],Positive
same,dose dependence of the reduction of viral titer / viral genomic copies,"[1]; A549 cells, qRT-PCR, FIGS. 5 to 8",decreased viral titer in a dose-dependent manner
same,reduction in viral titer,[1]; highest tested concentration of 100 μg/ml,100 fold
same,Ct FAM,[1]; listed as G1,36.21 and 30.38 and 35.93 and 30.08 and 37.95 and 32.97 and 34.96 and 34.02
same,blood glucose level at the start of the OGTT,ZDF fa/fa rats [2]; 0.008 mg/kg s.c. every 3 days,190 ± 40 mg/dL
same,fasting insulin level,ZDF fa/fa rats [2]; 0.008 mg/kg s.c. every 3 days,14 ± 3 ng/mL
same,insulin level at 15 minutes of the OGTT,ZDF fa/fa rats [2]; 0.008 mg/kg s.c. every 3 days,24 ± 6 ng/mL
same,blood glucose level at 30 minutes of the OGTT (peak),ZDF fa/fa rats [2]; 0.04 mg/kg s.c. every 3 days,355 mg/dL
same,blood glucose level at the start of the OGTT,ZDF fa/fa rats [2]; 0.04 mg/kg s.c. every 3 days,163 ± 40 mg/dL
same,fasting insulin level,ZDF fa/fa rats [2]; 0.04 mg/kg s.c. every 3 days,12 ± 3 ng/mL
same,insulin level at 15 minutes of the OGTT,ZDF fa/fa rats [2]; 0.04 mg/kg s.c. every 3 days,26 ± 3 ng/mL
same,AUC of blood glucose during OGTT,ZDF fa/fa rats [2]; 0.2 mg/kg s.c. every 3 days,33241.13 ± 3910.62 mg/dL (min)
same,blood glucose level at 30 minutes of the OGTT (peak),ZDF fa/fa rats [2]; 0.2 mg/kg s.c. every 3 days,312 mg/dL
same,blood glucose level at the start of the OGTT,ZDF fa/fa rats [2]; 0.2 mg/kg s.c. every 3 days,150 ± 20 mg/dL
same,fasting insulin level,ZDF fa/fa rats [2]; 0.2 mg/kg s.c. every 3 days,17 ± 5 ng/mL
same,insulin level at 15 minutes of the OGTT,ZDF fa/fa rats [2]; 0.2 mg/kg s.c. every 3 days,30 ± 7 ng/mL
same,blood glucose level at 30 minutes of the OGTT (peak),ZDF fa/fa rats [2]; 0.008 s.c. every 3 days,400 mg/dL
same,increase in total glucose infusion rate AUC compared to vehicle,"Sprague Dawley Rats; 0.5 mg/kg i.m. at t=−30 min, 120-minute clamp",179%
same,peak increase of glucose infusion rate compared to vehicle,"Sprague Dawley Rats; 0.5 mg/kg i.m. at t=−30 min, t=60 min",291%
same,Calculated Glucose Infusion Rate Area Under the Curve,"Sprague Dawley Rats; 0.5 mg/kg i.m., individual animals # 1-4",4560 mg/kg and 4317 mg/kg and 3243 mg/kg and 2685 mg/kg
same,AUC-GIR (glucose infusion rate) in the clamp,ZDF fa/fa rats [3]; 0.04 mg/kg s.c. every 3 days,significantly higher AUC-GIR
same,AUC-GIR (glucose infusion rate) in the clamp,ZDF fa/fa rats [3]; 0.2 mg/kg s.c. every 3 days,significantly higher AUC-GIR

# Reference: US20140017242A1, “ANTI-BRADYKININ B2 RECEPTOR (BKB2R) MONOCLONAL ANTIBODY” (Diamedica, Inc., priority 2010, published 2014)
